Laboratory results as given in the domain aggregation screens of Martell et al. (2025).

Experiment: soluble fraction after stress (log2 fold change); higher = more stays soluble; pooled small domains, quantitative proteomics
Conditions: stress: pH 4
Outline: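 Pooled custom libraries of small protein domains were stressed at pH 4 and then measured by high-throughput quantitative proteomics. The fold change in the amount of each domain that stays soluble after the acid stress serves as a measure of aggregation propensity. Fold changes are given on a log2 scale, and higher values mean more of the domain stayed soluble.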

| Sequence | soluble fraction (log2) |
| --- | --- |
| HMTKTSQEDEDIMRHLDELHTRWPFLGQRKLIEELKDQGIQIGRKRLRRLMKVMGIEAIAPK | 0.173 |
| HMPAEEVPLYKAVVVTTPPNRLRVRFSPAGDFKRWLQSGEEVDVYQELGDWRRIEPNGWSSAEWLQRVG | 0.00708 |
| HMQKDYKTRLQEYYAKVGKKVNYMDSSTGPDHDKKFQTQVFLDKEIIGVGEGKSKKSSQQEAAKQALEKI | ≥ 0.43 |
| HMDEQVETLKNLISELPKEQLEVLVMRHYEDLSFKEISEKTGVSINTALGRMRYALINIRKLMKENN | -0.488 |
| HMDQEDAYMQVRQVFDTLLVSELSKRIFAWRFFEGKSFAEWPGAESQKFLYDTFNRILLIISAKIRRKNA | -0.522 |
| HMEKTKLPNLVDFTYRQAEALLQTHGLKVGKVERVPDVGQTVIKAKYKGKVISWGTELNKGEKIDLVIGKG | 0.13 |
| HMLPIMDRLITAGISINTAKKWVDKFGDKRIKQNLAYSLAKQKEGKVKTNFVGYLAKAIEEDWGSGWE | ≥ 0.43 |
| HMKTGNIVMVNLGWKGKYYSIKMFFPQVSKPSRKDVQDQIEKIYPGGKLYTFVVSNYEPGEPMLHA | -0.164 |
| HMRKDRKVLMERGRHIFNDLLEKEGIVATNQLMTKLLASHHLRNRDELYLMLANDDISLSSKEIKDLS | 0.22 |
| HMGVPVTAPMPGKVLKVTVSVGAAVKNGDLVLVLEAMKMENEIFATANGVVKEIRSREGDTVNSGDVMMVI | -1.35 |
| HMSKPIREVAYETLKNAIVTGEIPAGSRIVETEYAERMHISRTPLREALRKLERDGLVEYVVRRGVVVRAF | -0.303 |
| HMGAGFREAIPPALDGERIDRVVSLLAYVSRNRAAGALAAGSVSVDGEVVFQRSRRVREGEELVVTGFERE | -0.427 |
| HMSDRESYGRYRNVSLTLSEYESLKNEYPLYADKYIERLSEYMETAGKHYNNHYATILSWLSKDIK | -0.8 |
| HMNEKGTNSTINEITRISKPGRRVYVGSAEIPKVKSGRGLVLISTSKGVMTGAEAAKAKLGGELLLKV | 0.129 |
| HMQIDDSVELSAIVEKLLAANPEQVEQLKNGKTKVLGYFVGLAMKETQGRANPQKVNELIQTHL | -0.308 |
| HMSAEDYMEMIYRLSQENGFTRVNDLASALNVQPPSVTRMIQKLAELNLIKYEKYGVIMLQPYGIEVGRSL | -1.47 |
| HMSDLTEVIVKFSGDIQPIRQDLDAQVEILLKGYAIITLSPNKIGRLYSYPQIESIEIPKNLYI | -0.833 |
| HMGTESFGARIRKIREARDWTPAALAEATGQTPEFVARVERDEVAPPVAFLLRLAAALGVDPSTF | -0.672 |
| HMEAYSAEAVRFRIKAMIESETVDDVMSDDKIVERLLADGVDIARRTVAKYREAMNIPSSVKRRRKLKGM | -0.962 |
| HMTSMTHLGRHPDSEISLDDISVSRRHAEIERQGHEYVLRDSGSLNGTYVNQQRVDSVVLQQGDEIL | -0.277 |
| HMKHKHHIIPKHKGGTDHPDNLIELTVEQHAKAHWVEFMLDGREEDYWAWKGLEGVASKKDIIYALSKR | -0.313 |
| HMVIMDLIVNGEPKYVVGEQLHLILDELGYSGKHFVVELNGEILSKEAYTTTKLTAADRLEIVSFVGG | -1.72 |
| HMPPDLSEAIQKRIEGKTDEALEILRKLYNEYPESTEIITMLGRTLLDAEEYALAAFRLEQALDLGG | -1.22 |
| HMGKKQLVVDLQSIITDVPAALKSYGLEIGQDGKSLIYTYDTKGERTGITTLLNDLQKAGLQMTDMKTQQ | -0.0755 |
| HMSEMLPFDEARRQFERDYLVQLLKLTSGNVSQAARLARRNRTDFYALLGRHQLEPASFKPE | -0.641 |
| HMERPSLDQVLAHAKALGIAPARFVAYADGRWGTGWRLSPHGRARAWEELDRHRNDPLGYRDKLDVALQSG | 0.181 |
| HMKIEEIAYSTFISMLDKGEVSKVELKDNLIYIETKADDKTIYTTGRMEDPDLTNRLIEAGVDFTEIE | -0.73 |
| HMQKTQVVEVAGKSYQLTKMDARTGSYVAFKVAGVLAPSGGKTAEMAAALMGMPRKDFDELQSLLLRTV | ≥ 0.43 |

| Sequence | soluble fraction (log2) |
| --- | --- |
| HMTIHVMEIKSLLPIKILDESQHLVQSFSSKNPTSYNYRLIFSDKSKLENIKKTINENKDVESIEIRYA | -0.436 |
| HMDVKPWERQEGESAKAFEAFTIYAGLGADRSLRAVAQQLGKSKTLMDRWSSTYSWVARAAEYDADLQRK | ≥ 0.43 |
| HMEVTLGLGSMVRLLGEPYLGSTGRVVELPDQAERFASGLTAKVAVVERHDGELIRVPVTNLLLME | 0.214 |
| HMNTGIPHQEVIKKLYSFAEGGDWKGLKEELNRIKEYTLFYNSVKELADSFEINRLIEKLKTYIF | -0.0132 |
| HMTNEPRLTNMGFNKMLIENYKMILEYQDFFIRISTQIGIININGFDLKLGEMTADEVLVTGKIESIDL | ≥ 0.43 |
| HMSNDRSYLARLQDYYAEHRALPSYASIGALLGLRSKSSVAALVARLKLAGFVESTPDRRLAPTRRFF | 0.344 |
| HMQINLSEWVLAAREYAGPEMTQEKLAEHLGRTKANVSAMENGRSKPSFEQMMEIHRVTGYPLPYQ | -0.0156 |
| HMFSMKDFGQRLRQLRKERGLTQGDLARLAKIDIMQVSRYERGLGLPSLETAIALARVLETSTDLLFLG | -0.0792 |
| HMKDMWNRIRRARLSAGLSQAALAKETGVRRSAVTQWEKEGGTSPSVANLARIAVVTQVHFEWLATGRGPG | -0.216 |
| HMHREITGSLAERNGRYTAILNLYDEDGKRRQKSIALGIPVKGNKRKAQAQLEELKRAYSLGLPQ | 0.051 |
| HMKAMIIVMKPGADMATISKVLKTIETNGFKPHLSKGEETTVIGVIGDERKLNPDIFSTLEGVERIVPVA | 0.279 |
| HMKALEGMRTVFTLADLATEPVTVEITVLEAFKYTTTLEIVQRPVLREWMTNPSMLIRVYHDASTAE | -0.138 |
| HMKGLKERLLYFIEYKGLPVQMFEKIVGLSNAAVSKMGDNTRRSTIDKISKSFPELDVNWLLTGQGEMLSY | 0.296 |
| HMKHKGILTTWNDDRGFGFITPKEGKEPVFVHISAFARGQGRPVLNASLTYRLVRDDQQRPRAEAVRL | 0.189 |
| HMGQLTDKQILLFSGKLAYEPTFASKYSKAGESYDDFIIRISGDLTDPKKIKEYSPYLKELGF | -0.954 |
| HMGTRHPLPYAYARANTVLLEDDGDRLVLWAPENVSLTALGEVLRRFDVDALERESSSTLANRIAVAYAG | -0.896 |
| HMRTVAERYGLTAGQWRVLELLTQGKTNRQIAEMLDVTEGTVKIHVSAIFKAMKVTNRTQALLLAKKH | -0.522 |
| HMFPTLNEDEQTIVSALQKINDQPINTLSIHTALPIPRLTSLLFQLEIKGVIKQLAGGTYHVL | -0.147 |
| HMLIIMNSDATKEQVDHVTSRVREAGFKDHIMPGAGKVAIGVTGTGDYDQTKLHLEILPGVFKIMRITK | -0.0509 |
| HMSDLQTGDINQDGTVDEKDLSLLHSYNLELIKTISNAADLNEDGVINGLDEAYLKRLFLQNSDP | -0.142 |
| HMQIIEVPYSEFLKKLESGQISEVSRDSYQIVFTDRSQPPIIYKTGLMEDPGLVDKMQEAGVTFTSP | -0.228 |
| HMQVRVERSRDKVVISGVNYYIHPVRKGETVYSIARAYGITTQDLVRENPSAAEGLKEGQSIRIPERLVD | 0.22 |
| HMQNKYIIKQGNSGELVEVLQELLNLKQDGVFGPQTKKAVIAFQQKHKLVADGIVGPMSWRKLNFNPEELF | -0.282 |
| HMTEEYAVLWRVARQTLKPEAFDVLWMKYREQLSIAEIAGIMNRSETSVKVMLHRARKNLGTALESS | -0.262 |
| HMVKTANVAYSEFLKLVESDNISDVSIVGRTITGHLDDGTKFSTYTPPNDPSLIDKLTRKNVIIKSAPE | 0.181 |
| HMGQNYTIVKGDSLWKIAQKQYGDGSQWKKIYDANKDAIESAAKKYGKKSSDSGKWIYPGVSLII | 0.134 |
| HMGDVKLNAIYNFLKEFSALNGFPPSVREIGAKFGIKSTSTVHYYLEKLKQSGVIQQEENKKRAVVIN | -0.446 |
